Experimental data: publication PMC7618375, “Structure and Methyl-lysine Binding Selectivity of the HUSH Complex Subunit MPP8” (Journal of molecular biology, 2024)
No end group written: not given here. Me2 = dimethyl on the lysine side-chain amine

B1: Histone H3 peptide dimethylated at lysine 9 (peptide)
chain: TKQTARK(Me2)STGGK
B2: MPP8 C-terminal domain (CTD, residues 547-860) (domain or fragment, human, UniProt Q99549 547-860, looked up)
chain: DFQKHLDGKDENFAATDAIPSNVLRDAVKNGDYITVKVALNSNEEYNLDQEDSSGMTLVMLAAAGGQDDLLRLLITKGAKVNGRQKNGTTALIHAAEKNFLTTVAILLEAGAFVNVQQSNGETALMKACKRGNSDIVRLVIECGADCNILSKHQNSALHFAKQSNNVLVYDLLKNHLETLSRVAEETIKDYFEARLALLEPVFPIACHRLCEGPDFSTDFNYKPPQNIPEGSGILLFIFHANFLGKEVIARLCGPCSVQAVVLNDKFQLPVFLDSHFVYSFSPVAGPNKLFIRLTEAPSAKVKLLIGAYRVQLQ
notes: MPP8 (M-phase phosphoprotein 8), human, C-terminal domain (ankyrin repeats and PINIT-like domain), residues 547-860, UniProt Q99549; residues 547-562 disordered in the crystal, model spans 563-860; also called MPP8 CTD; source: E. coli BL21 (DE3), purified (Ni-NTA, thrombin cleavage, Resource Q, Superdex 200 SEC); not shown: His6, N-terminal, cleaved

What was measured:
[1] = target: T1, MPP8 chromodomain (CD, residues 55-116) (human, UniProt Q99549 55-116); experiment: ITC; 750 uM peptide in the syringe titrated into 50 uM MPP8 CD in the cell; 50 mM HEPES pH 7.4, 0.1 M NaCl, 0.5 mM TCEP, 25 °C; single-site model; details: both partners purified
T1 construct: MPP8 (M-phase phosphoprotein 8), human, chromodomain, residues 55-116, UniProt Q99549; Cloned in pET15b with a TEV site (ENLYFQG) in place of the thrombin site; also called MPP8 CD; M-phase phosphoprotein 8 chromodomain; source: E. coli BL21 (DE3), purified (Ni-NTA, Mono Q, Superdex 75 SEC)
T1 sequence (looked up): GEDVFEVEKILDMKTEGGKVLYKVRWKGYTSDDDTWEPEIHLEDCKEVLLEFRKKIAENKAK

[2] = target: the molecule itself; experiment: crystal structure; MPP8 CTD, X-ray, 3.04 Å, eight chains in the asymmetric unit; crystals at 18 °C, PEG 4000/1,2,6-hexanetriol, pH 8.5

| Binder | Kd [1] [µM] | stoichiometry N [2] |
| --- | --- | --- |
| B1 | 1.7 | – |
| B2 | – | 2 |
